Reference: patent US20090022728A1 (RINAT NEUROSCIENCE, published 2009)
Substitutions are numbered along the chain they refer to. In names and notes the source's numbering stands.

B1: 9TL variant M47 Fab (Fab, V domains shown)
VH: QVQLVQSGAEVKKPGASVKVSCKASGYYTEAYYIHWVRQAPGQGLEWMGRIDPATGNTKYAPRLQDRVTMTRDTSTSTVYMELSSLRSEDTAVYYCASLYSLPQYWGQGTTVTVSS
VL: DVVMTQSPLSLPVTLGQPASISCKSSQSLLYSDAKTYLNWFQQRPGQSPRRLIYQISRLDPGVPDRFSGSGSGTDFTLKISRVEAEDVGVYYCLQGTHYPVLFGQGTRLEIKR
notes: Fab; human IgG2 CH1 and kappa CL
B2: 9TL variant M49 Fab (Fab, V domains shown)
VH: B1 VH with Q104N
VL: B1 VL
notes: as for B1
B3: 9TL variant W1 Fab (Fab, V domains shown)
VH: B1 VH with Q104V
VL: B1 VL with Y31A, A34S, L102T
notes: as for B1
B4: 9TL variant M53 Fab (Fab, V domains shown)
VH: B1 VH with Q104V, Y105W
VL: B1 VL
notes: as for B1
B5: 9TL variant W5 Fab (Fab, V domains shown)
VH: B1 VH with Q104V
VL: B1 VL with Y31H, K35A, L102T
notes: as for B1
B6: 9TL variant W8 Fab (Fab, V domains shown)
VH: B1 VH with Q104V
VL: B1 VL with Y31H, A34S, K35A, L102T
notes: as for B1
B7: 9TL variant M52 Fab (Fab, V domains shown)
VH: B1 VH with Q104V, Y105F
VL: B1 VL
notes: as for B1
B8: 9TL variant M55 Fab (Fab, V domains shown)
VH: B1 VH with Q104V, Y105I
VL: B1 VL
notes: as for B1
B9: 9TL variant M54 Fab (Fab, V domains shown)
VH: B1 VH with Q104V, Y105S
VL: B1 VL
notes: as for B1
B10: 9TL variant M50 Fab (Fab, V domains shown)
VH: B1 VH with Q104F
VL: B1 VL
notes: as for B1
B11: 9TL variant M48 Fab (Fab, V domains shown)
VH: B1 VH with Q104S
VL: B1 VL
notes: as for B1
B12: 9TL variant M51 Fab (Fab, V domains shown)
VH: B1 VH with Q104V, Y105H
VL: B1 VL
notes: as for B1
B13: 9TL variant M56 Fab (Fab, V domains shown)
VH: B1 VH with Q104V, Y105V
VL: B1 VL
notes: as for B1
B14: 6G heavy chain variant 3C (D103G) (antibody, V domains shown)
VH: QVQLVQSGAEVKKPGASVKVSCKASGYTFTTYAIHWVRQAPGQGLEWMGFTSPYSGVSNYNQKFKGRVTMTRDTSTSTVYMELSSLRSEDTAVYYCARFDNYGRGYVRDYWGQGTLVTVS
VL: DIVMTQSPDSLAVSLGERATINCRASESVDNDRISFLNWYQQKPGQPPKLLIYAATKQGTGVPDRFSGSGSGTDFTLTISSLQAEDVAVYYCQQSKEFPWSFGGGTKVEIKR
B15: 6G heavy chain variant 4B (R104F) (antibody, V domains shown)
VH: B14 VH with G103D, R104F
VL: B14 VL
B16: 6G heavy chain variant 4D (R104Q) (antibody, V domains shown)
VH: B14 VH with G103D, R104Q
VL: B14 VL
B17: 6G light chain variant 6E (E97P) (antibody, V domains shown)
VH: B14 VH with G103D
VL: B14 VL with E97P
B18: 6G light chain variant 5H (E97R) (antibody, V domains shown)
VH: B14 VH with G103D
VL: B14 VL with E97R
B19: 6G light chain variant 6C (E97G) (antibody, V domains shown)
VH: B14 VH with G103D
VL: B14 VL with E97G
B20: 6G light chain variant 2H (Q93K) (antibody, V domains shown)
VH: B14 VH with G103D
VL: B14 VL with Q93K
B21: 6G light chain variant 6D (E97T) (antibody, V domains shown)
VH: B14 VH with G103D
VL: B14 VL with E97T
B22: 6G light chain variant 7E (Q94R) (antibody, V domains shown)
VH: B14 VH with G103D
VL: B14 VL with Q94R
B23: 6G heavy chain variant 6F (R104S) (antibody, V domains shown)
VH: B14 VH with G103D, R104S
VL: B14 VL
B24: 6G light chain variant 7F (Q94K) (antibody, V domains shown)
VH: B14 VH with G103D
VL: B14 VL with Q94K
B25: 6G heavy chain variant 10G (Y102I) (antibody, V domains shown)
VH: B14 VH with Y102I, G103D
VL: B14 VL
B26: 6G light chain variant 5B (Q94G) (antibody, V domains shown)
VH: B14 VH with G103D
VL: B14 VL with Q94G
B27: 6G light chain variant 10E (S95L) (antibody, V domains shown)
VH: B14 VH with G103D
VL: B14 VL with S95L
B28: 6G light chain variant 3A (Q93P) (antibody, V domains shown)
VH: B14 VH with G103D
VL: B14 VL with Q93P
B29: 6G heavy chain variant 11D (Y102M) (antibody, V domains shown)
VH: B14 VH with Y102M, G103D
VL: B14 VL
B30: 6G heavy chain variant 9E (N101R) (antibody, V domains shown)
VH: B14 VH with N101R, G103D
VL: B14 VL
B31: 6G heavy chain variant 8H (N101H) (antibody, V domains shown)
VH: B14 VH with N101H, G103D
VL: B14 VL

These binders were tested against T1, biotinylated Aβ1-40 peptide (biotinylated (N-biotinylated in Example 7)) (assay: SPR, Fab over Aβ1-40 on SA chip).
T1 construct: captured on streptavidin (SA) chip; also called Biotinylated Aβ peptide 1-40; Aβ1-40 on SA chip
T1 sequence (peptide, as listed by the source): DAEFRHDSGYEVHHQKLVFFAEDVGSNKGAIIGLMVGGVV
Protocol: (§1) Affinities of 9TL Fab fragment and its variants Fab fragments were determined by Surface Plasmon Resonance (SPR) system (BIAcore 3000™, BIAcore, Inc., Piscaway, N.J.). SA chips (streptavidin) were used according to the supplier's instructions. Biotinylated Aβ peptide 1-40 was diluted into HBS-EP (10 mM HEPES pH 7.4, 150 mM NaCl, 3 mM EDTA, 0.005% P20) and injected over the chip at a concentration of 0.005 mg/mL. Using variable flow time across the individual chip channels, two ranges of antigen density were achieved: 10-200 response units (RU) for detailed kinetic studies and 500-600 RU for concentration studies and screening. […] HBS-EP buffer was used as running buffer for all the BIAcore assays. […] The concentrations of the Fab proteins were determined by ELISA and/or SDS-PAGE electrophoresis using a standard Fab of known concentration (determined by amino acid analysis). Kinetic association rates (kₒₙ) and dissociation rates (koff) were obtained simultaneously by fitting the data to a 1:1 Langmuir binding model (Karlsson, R. Roos, H. Fagerstam, L. Petersson, B. (1994). Methods Enzymology 6. 99-110) using the BIAevaluation program. Equilibrium dissociation constant (KD) values were calculated as koff/kₒₙ.
(§2) All amino acid substitutions of the variants shown in Table 3 are described relative to the sequence of 9TL. KD and other kinetic parameters were determined by BIAcore analysis described above with Aβ₁₋₄₀ immobilized on SA chip.

| koff [s⁻¹] | Binder |
| --- | --- |
| 0.02 | B1 |
| 0.026 | B2 |
| 0.009 | B3 |
| 0.0013 | B4 |
| 0.004 | B5 |
| 0.0038 | B6 |
| 0.0013 | B7 |
| 0.003 | B8 |
| 0.0024 | B9 |
| 0.027 | B10 |
| 0.026 | B11 |
| 0.00086 | B12 |
| 0.0035 | B13 |

The binders below were run against T2, Aβ1-40 peptide (assay: ELISA, nonbiotinylated peptide on plate).
T2 construct: synthetic peptide, not biotinylated; also called 1-40 (WT); beta amyloid 1-40
Protocol: (§3) ELISA was used for measuring binding of antibody 6G and variants to nonbiotinylated Aβ peptides. NUNC maxisorp plates were coated with 2.5 ug/ml of Aβ peptides in PBS pH 7.4 for more than 1 hour at 4° C. Plates were blocked with 1% BSA in PBS buffer pH 7.4. Primary antibody (from cell supernatants, serum containing anti-Aβ antibody, or purified full antibody or Fabs at desired dilution) was incubated with the immobilized Aβ peptides for 1 h at room temperature. After washing, the plates were incubated with secondary antibody, a HRP conjugated goat anti-human kappa chain antibody (MP Biomedicals, 55233) at 1:5000 dilution. After washing, bound secondary antibody was measured by adding TMB substrate (KPL, 50-76-02, 50-65-02). The HRP reaction was stopped by adding 1M phosphoric acid and absorbance at 450 nm was measured.
(§4) All amino acid substitutions of the variants shown in Table 8 are described relative to the sequence of 6G. Binding was determined by ELISA described above with nonbiotinylated Aβ₁₋₄₀ or Aβ₁₋₄₂ immobilized on the surface of an ELISA plate.

| A450 ELISA [A450] | Binder |
| --- | --- |
| 2.3 | B14 |
| 2.48 | B15 |
| 2.45 | B16 |
| 0.12 | B17 |
| 2.6 | B18 |
| 0.05 | B19 |
| 0.07 | B20 |
| 2.41 | B21 |
| 0.09 | B22 |
| 2.28 | B23 |
| 0.12 | B24 |
| 0.63 | B25 |
| 0.09 | B26 |
| 0.08 | B27 |
| 0.08 | B28 |
| 0.29 | B29 |

These binders were tested against T3, Aβ1-42 peptide (assay: ELISA, nonbiotinylated peptide on plate).
T3 construct: also called 1-42 (WT)
T3 sequence (peptide, as listed by the source): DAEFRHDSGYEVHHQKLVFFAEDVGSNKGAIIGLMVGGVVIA
Protocol: as §3, §4

| A450 ELISA [A450] | Binder |
| --- | --- |
| 0.76 | B14 |
| 0.71 | B15 |
| 1 | B16 |
| 0.85 | B18 |
| 0.26 | B30 |
| 0.05 | B19 |
| 0.13 | B20 |
| 1.34 | B21 |
| 0.62 | B23 |
| 0.19 | B31 |
| 0.22 | B25 |
| 0.13 | B28 |
| 0.24 | B29 |

Each binder was assayed against T1, biotinylated Aβ1-40 peptide (assay: SPR, Fab over Aβ1-40 on SA chip; KD=koff/kon).
Protocol: as §1, §2

| Kd [nM] | Binder |
| --- | --- |
| 62.9 | B1 |
| 81.8 | B2 |
| 28.3 | B3 |
| 4.09 | B4 |
| 12.6 | B5 |
| 11.9 | B6 |
| 4.09 | B7 |
| 9.43 | B8 |
| 7.55 | B9 |
| 84.9 | B10 |
| 81.8 | B11 |
| 2.7 | B12 |
| 11 | B13 |

These binders were tested against T1, biotinylated Aβ1-40 peptide (assay: SPR, Fab over Aβ1-40 on SA chip; kon may be assumed = 9TL (footnote 2)).
Protocol: as §1, §2

| kon [M⁻¹ s⁻¹] | Binder |
| --- | --- |
| 318000 | B1 |
| 318000 | B2 |
| 318000 | B3 |
| 318000 | B4 |
| 318000 | B5 |
| 318000 | B6 |
| 318000 | B7 |
| 318000 | B8 |
| 318000 | B9 |
| 318000 | B10 |
| 318000 | B11 |
| 318000 | B12 |
| 318000 | B13 |
